# Results from patent US7541446B2, “Tet repressor-based transcriptional regulatory proteins” (Tet Systems Holding GmbH & Co. KG, priority 1999, dated 2009).
# Tests used:
# [1] = test system: tetO DNA; experiment: DNA retardation experiment with radioactively labeled tetO DNA; assay type: binding; conditions: produced in HeLa cells; compared with rtTA2
# Description: Cellular material from cells transfected as described above was also used to compare the binding of rtTA2-34R and rtTA2 (rtTA fused to 3 minimal activation domains) to operator DNA in DNA retardation experiments.
# rtTA2 and rtTA2-34R^S were produced in HeLa cells and exposed to radioactively labeled tetO DNA in presence (+) and absence (−) of Dox.
# [2] = test system: luciferase activity; experiment: Doxycycline-dependent regulation of luciferase in HeLa cells, transient transfection of rtTA2-34R^S or rtTA2; assay type: cell-based
# Description: The synthetic gene encoding rtTA2-34R^S was cloned into pUHD15-1 and expression was examined in HeLa cells.
molecule,measurement,setting,value
"rtTA2-34R^S: first 206 amino acids of rtTA-34R fused to 3 minimal VP-16 activation domains (FFF), synthetic gene with human codon frequencies, SEQ ID NO: 5 (protein) MSRLDKSKVINSALELLNGVGIEGLTTRKLAQKLGVEQPTLYWHVKNKRALLDALPIEMLDRHHTHFCPLEGESWQDFLRNNAKSFRCALLSHRDGAKVHLGTRPTEKQYETLENQLAFLCQQGFSLENALYALSAVGHFTLGCVLEEQEHQVAKEERETPTTDSMPPLLRQAIELFDRQGAEPAFLFGLELIICGLEKQLKCESGGPADALDDFDLDMLPADALDDFDLDMLPADALDDFDLDMLPG",residual binding to operator DNA (binding in the absence of Dox),[1],greatly reduced
same,induction in cells treated with Dox,[2],up to 20 fold
same,"luciferase activity in relative light units, + Dox",[2]; + Dox,20.325
same,"luciferase activity in relative light units, − Dox",[2]; − Dox,1
